Data as given in patent US20250152742A1, “COMPOSITIONS AND METHODS FOR NEUROLOGICAL DISEASES” (Trames Bio, Inc., priority 2022, published 2025).

Tested on: engineered chimeric receptor SEQ ID NO: 33 and its mutants (human α7-nAChR ligand binding domain / human GlyRα1 ion pore domain) in Lenti-X 293T cells
Test: YFP fluorescence quenching anion reporter plate reader assay (percent quench, EC50)
Assay type: cell-based
Details: for YFP fluorescence quenching using CNL001 (percent quench): receptor named in row; for YFP fluorescence quenching using Varenicline, 3 nM var: ligand Varenicline 3 nM; for YFP fluorescence quenching using Varenicline, 30 nM var: ligand Varenicline 30 nM; for YFP fluorescence quenching using Varenicline, 300 nM var: ligand Varenicline 300 nM; for YFP fluorescence quenching using Varenicline, 500 nM var: ligand Varenicline 500 nM; for YFP fluorescence quenching using Varenicline, 1 uM var: ligand Varenicline 1 uM
Procedure, shortened: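 Lenti-X 293T cells co-expressing an anion-quenchable YFP were transiently transfected with receptor DNA, then ligand was added in NaI-substituted buffer (pH 7.2) after 30 min at 37 °C. Fluorescence was read about 2 min; percent quench = mean of last 10 s over 15 s pre-ligand baseline.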

[1] = 1 nM CNL001, first column so headed
[2] = 1 nM CNL001, second column so headed
[3] = 10 nM CNL001, first column so headed
[4] = 10 nM CNL001, second column so headed
[5] = 50 nM CNL001, first column so headed
[6] = 50 nM CNL001, second column so headed
[7] = 100 nM CNL001, first column so headed
[8] = 100 nM CNL001, second column so headed
[9] = 1 uM CNL001, first column so headed
[10] = 1 uM CNL001, second column so headed

Molecule | YFP fluorescence quenching using CNL001 (percent quench) [1] [%] | YFP fluorescence quenching using CNL001 (percent quench) [2] [%] | YFP fluorescence quenching using CNL001 (percent quench) [3] [%] | YFP fluorescence quenching using CNL001 (percent quench) [4] [%] | YFP fluorescence quenching using CNL001 (percent quench) [5] [%] | YFP fluorescence quenching using CNL001 (percent quench) [6] [%] | YFP fluorescence quenching using ABT-126 (percent quench) (50 nM abt (ABT-126)) [%] | YFP fluorescence quenching using CNL001 (percent quench) [7] [%] | YFP fluorescence quenching using CNL001 (percent quench) [8] [%] | YFP fluorescence quenching using ABT-126 (percent quench) (100 nM abt (ABT-126)) [%] | YFP fluorescence quenching using ABT-126 (percent quench) (300 nM abt (ABT-126)) [%] | YFP fluorescence quenching using CNL001 (percent quench) [9] [%] | YFP fluorescence quenching using CNL001 (percent quench) [10] [%] | YFP fluorescence quenching using ABT-126 (percent quench) (1 uM abt (ABT-126)) [%] | YFP fluorescence quenching (percent quench) (100 uM ach (acetylcholine)) [%] | YFP fluorescence quenching (percent quench) (300 uM ach (acetylcholine)) [%] | YFP fluorescence quenching (percent quench) (1 mM ach (acetylcholine)) [%] | YFP fluorescence quenching (percent quench) (3 mM ach (acetylcholine)) [%] | other results
CODA1056: engineered receptor: R101F, Y115E, Y210W in SEQ ID NO: 33 (protein, synthetic sequence of chimeric LGIC) MRCSPGGVWLALAASLLHVSLQGEFQRKLYKELVKNYNPLERPVANDSQPLTVYFSLSLLQIMDVDEKNQVLTTNIWLQMSWTDHYLQWNVSEYPGVKTVFFPDGQIWKPDILLENSADERFDATFHTNVLVNSSGHCQYLPPGIFKSSCPMDLKNFPMDVQTCKLKFGSWSYGGWSLDLQMQEADISGYIPNGEWDLVGIPGKRSERFWECCKEPYPDVTFTVTMRRRMGYYLIQMYIPSLLIVILSWISFWINMDAAPARVGLGITTVLTMTTQSSGSRASLPKVSYVKAIDIWMAVCLLFVFSALLEYAAVNFVSRQHKELLRFRRKRRHHKSPMLNLFQEDEAGEGRFNFSAYGMGPACLQAKDGISVKGANNSNTTNPPPAPSKSPEEMRKLFIQRAKKIDKISRIGFPMAFLIFNMFYWIIYKIVRREDVHNQ | −8.104 | −12.153 | −10.462 | −4.735 | −8.617 | −1.606 | −20.96 | −1.243 | 1.838 | −21.95 | −10.96 | −0.567 | 4.663 | 10.79 | −20.55 | −19.32 | −14.08 | 14.07 | YFP fluorescence quenching using TC-5619/Bradanicline (percent quench) (1 nM brd (TC-5619/Bradanicline)): −7.894%; YFP fluorescence quenching using TC-5619/Bradanicline (percent quench) (3 nM brd (TC-5619/Bradanicline)): −11.812%; YFP fluorescence quenching using TC-5619/Bradanicline (percent quench) (10 nM brd (TC-5619/Bradanicline)): 36.211%; YFP fluorescence quenching using TC-6683 (percent quench) (30 nM TC-6683): −19.889%; YFP fluorescence quenching using TC-5619/Bradanicline (percent quench) (30 nM brd (TC-5619/Bradanicline)): 40.624%; YFP fluorescence quenching using TC-5619/Bradanicline (percent quench) (100 nM brd (TC-5619/Bradanicline)): 65.869%; YFP fluorescence quenching using TC-6683 (percent quench) (300 nM TC-6683): −22.443%; YFP fluorescence quenching using TC-5619/Bradanicline (percent quench) (300 nM brd (TC-5619/Bradanicline)): 59.661%; YFP fluorescence quenching using TC-6683 (percent quench) (3 uM TC-6683): −12.623%; YFP fluorescence quenching using TC-6683 (percent quench) (30 uM TC-6683): −10.728%; YFP fluorescence quenching using TC-6683 (percent quench) (100 uM TC-6683): −10.959%; YFP fluorescence quenching (percent quench) (500 uM ach (acetylcholine)): −19.75%; YFP fluorescence quenching (percent quench) (10 mM ach (acetylcholine)): 25.7%
CODA1138: engineered receptor: W77F, R101F, L131D in SEQ ID NO: 33 (protein, synthetic sequence of chimeric LGIC) MRCSPGGVWLALAASLLHVSLQGEFQRKLYKELVKNYNPLERPVANDSQPLTVYFSLSLLQIMDVDEKNQVLTTNIFLQMSWTDHYLQWNVSEYPGVKTVFFPDGQIWKPDILLYNSADERFDATFHTNVDVNSSGHCQYLPPGIFKSSCPMDLKNFPMDVQTCKLKFGSWSYGGWSLDLQMQEADISGYIPNGEWDLVGIPGKRSERFYECCKEPYPDVTFTVTMRRRMGYYLIQMYIPSLLIVILSWISFWINMDAAPARVGLGITTVLTMTTQSSGSRASLPKVSYVKAIDIWMAVCLLFVFSALLEYAAVNFVSRQHKELLRFRRKRRHHKSPMLNLFQEDEAGEGRFNFSAYGMGPACLQAKDGISVKGANNSNTTNPPPAPSKSPEEMRKLFIQRAKKIDKISRIGFPMAFLIFNMFYWIIYKIVRREDVHNQ | −6.175 | 5.89 | −2.032 | 7.601 | 9.263 | 4.423 | −11.71 | 24 | 30.448 | −5.13 | 15.09 | 73.823 | 73.271 | 56.63 | −19.35 | −14.79 | 37.5 | 61.73 | YFP fluorescence quenching (percent quench) (1 nM CNL002): −2.209%; YFP fluorescence quenching (percent quench) (10 nM CNL002): 43.044%; YFP fluorescence quenching (percent quench) (50 nM CNL002): 73.418%; YFP fluorescence quenching (percent quench) (100 nM CNL002): 81.66%; YFP fluorescence quenching (percent quench) (1 uM CNL002): 81.69%; YFP fluorescence quenching using ABT-126 (percent quench) (10 uM abt (ABT-126)): 75.93%; YFP fluorescence quenching (percent quench) (10 uM ach (acetylcholine)): −12.92%; YFP fluorescence quenching (percent quench) (30 uM ach (acetylcholine)): −15.36%; YFP fluorescence quenching using Varenicline, 3 nM var (first column): 3.893; YFP fluorescence quenching using Varenicline, 3 nM var (second column): 1.107; YFP fluorescence quenching using Varenicline, 30 nM var (first column): 0.972; YFP fluorescence quenching using Varenicline, 30 nM var (second column): 0.872; YFP fluorescence quenching using Varenicline, 300 nM var (first column): 2.282; YFP fluorescence quenching using Varenicline, 300 nM var (second column): −0.288; YFP fluorescence quenching using Varenicline, 500 nM var (first column): 3.637; YFP fluorescence quenching using Varenicline, 500 nM var (second column): −1.804; YFP fluorescence quenching using Varenicline, 1 uM var (first column): −1.84; YFP fluorescence quenching using Varenicline, 1 uM var (second column): 6.36
